Test results as given in US20220048967A1 (published 2022).
Numbered stars: 1 amine (or outer) side, 2 acyl side, 3 side chain; on linkers, the order of the positions; unused ones are H or OH. Square brackets hold non-standard residues; d marks the D form. Side chains are listed from the residue outwards. Ends that are not written are not given here. * marks the point of attachment. C18 diacid = O=C(O)CCCCCCCCCCCCCCCCC(=O)*; γGlu = O=C(O)[C@H](CCC(=O)[*:2])N[*:1]; AEEA = NCCOCCOCC(=O)O; Aib = CC(C)(N)C(=O)O

T1: human gastric inhibitory peptide receptor (GIPR) (human, UniProt P48546 22-466)
T1 sequence (looked up): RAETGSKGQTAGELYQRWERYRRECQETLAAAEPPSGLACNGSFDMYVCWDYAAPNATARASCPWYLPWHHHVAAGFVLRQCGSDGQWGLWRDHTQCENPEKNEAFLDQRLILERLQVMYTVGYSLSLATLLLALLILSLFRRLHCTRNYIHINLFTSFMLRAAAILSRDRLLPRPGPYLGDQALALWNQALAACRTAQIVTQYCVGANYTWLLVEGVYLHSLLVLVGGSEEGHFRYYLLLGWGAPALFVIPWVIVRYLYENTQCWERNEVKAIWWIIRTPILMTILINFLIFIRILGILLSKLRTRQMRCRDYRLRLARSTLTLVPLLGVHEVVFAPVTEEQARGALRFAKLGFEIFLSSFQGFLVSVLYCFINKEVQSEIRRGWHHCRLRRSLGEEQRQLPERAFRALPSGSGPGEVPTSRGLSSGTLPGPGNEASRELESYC

B1: Example 273 (peptide)
peptide: Y[Aib]EGTFTSDYSILLDKK([AEEA-AEEA-γGlu-C18 diacid])AQ[Aib]AFIEYLIAGG-NH2
modifications: N-terminus assumed
SMILES: CC[C@H](C)[C@H](NC(=O)[C@H](CC(C)C)NC(=O)[C@H](Cc1ccc(O)cc1)NC(=O)[C@H](CCC(=O)O)NC(=O)[C@@H](NC(=O)[C@H](Cc1ccccc1)NC(=O)[C@H](C)NC(=O)C(C)(C)NC(=O)[C@H](CCC(N)=O)NC(=O)[C@H](C)NC(=O)[C@H](CCCCNC(=O)COCCOCCNC(=O)COCCOCCNC(=O)CC[C@H](NC(=O)CCCCCCCCCCCCCCCCC(=O)O)C(=O)O)NC(=O)[C@H](CCCCN)NC(=O)[C@H](CC(=O)O)NC(=O)[C@H](CC(C)C)NC(=O)[C@H](CC(C)C)NC(=O)[C@@H](NC(=O)[C@H](CO)NC(=O)[C@H](Cc1ccc(O)cc1)NC(=O)[C@H](CC(=O)O)NC(=O)[C@H](CO)NC(=O)[C@@H](NC(=O)[C@H](Cc1ccccc1)NC(=O)[C@@H](NC(=O)CNC(=O)[C@H](CCC(=O)O)NC(=O)C(C)(C)NC(=O)[C@@H](N)Cc1ccc(O)cc1)[C@@H](C)O)[C@@H](C)O)[C@@H](C)CC)[C@@H](C)CC)C(=O)N[C@@H](C)C(=O)NCC(=O)NCC(N)=O
B2: Example 275 (peptide)
peptide: Y[Aib]EGTFTSDYSILLDKK([AEEA-AEEA-γGlu-C18 diacid])AQPAFIEYLIEGG-NH2
modifications: N-terminus assumed
SMILES: CC[C@H](C)[C@H](NC(=O)[C@H](CC(C)C)NC(=O)[C@H](Cc1ccc(O)cc1)NC(=O)[C@H](CCC(=O)O)NC(=O)[C@@H](NC(=O)[C@H](Cc1ccccc1)NC(=O)[C@H](C)NC(=O)[C@@H]1CCCN1C(=O)[C@H](CCC(N)=O)NC(=O)[C@H](C)NC(=O)[C@H](CCCCNC(=O)COCCOCCNC(=O)COCCOCCNC(=O)CC[C@H](NC(=O)CCCCCCCCCCCCCCCCC(=O)O)C(=O)O)NC(=O)[C@H](CCCCN)NC(=O)[C@H](CC(=O)O)NC(=O)[C@H](CC(C)C)NC(=O)[C@H](CC(C)C)NC(=O)[C@@H](NC(=O)[C@H](CO)NC(=O)[C@H](Cc1ccc(O)cc1)NC(=O)[C@H](CC(=O)O)NC(=O)[C@H](CO)NC(=O)[C@@H](NC(=O)[C@H](Cc1ccccc1)NC(=O)[C@@H](NC(=O)CNC(=O)[C@H](CCC(=O)O)NC(=O)C(C)(C)NC(=O)[C@@H](N)Cc1ccc(O)cc1)[C@@H](C)O)[C@@H](C)O)[C@@H](C)CC)[C@@H](C)CC)C(=O)N[C@@H](CCC(=O)O)C(=O)NCC(=O)NCC(N)=O
B3: Example 271 (peptide)
peptide: Y[Aib]EGTFTSDYSILLDKK([AEEA-AEEA-γGlu-C18 diacid])AQ[Aib]EFIEYLIEGG-NH2
modifications: N-terminus assumed
SMILES: CC[C@H](C)[C@H](NC(=O)[C@H](CC(C)C)NC(=O)[C@H](Cc1ccc(O)cc1)NC(=O)[C@H](CCC(=O)O)NC(=O)[C@@H](NC(=O)[C@H](Cc1ccccc1)NC(=O)[C@H](CCC(=O)O)NC(=O)C(C)(C)NC(=O)[C@H](CCC(N)=O)NC(=O)[C@H](C)NC(=O)[C@H](CCCCNC(=O)COCCOCCNC(=O)COCCOCCNC(=O)CC[C@H](NC(=O)CCCCCCCCCCCCCCCCC(=O)O)C(=O)O)NC(=O)[C@H](CCCCN)NC(=O)[C@H](CC(=O)O)NC(=O)[C@H](CC(C)C)NC(=O)[C@H](CC(C)C)NC(=O)[C@@H](NC(=O)[C@H](CO)NC(=O)[C@H](Cc1ccc(O)cc1)NC(=O)[C@H](CC(=O)O)NC(=O)[C@H](CO)NC(=O)[C@@H](NC(=O)[C@H](Cc1ccccc1)NC(=O)[C@@H](NC(=O)CNC(=O)[C@H](CCC(=O)O)NC(=O)C(C)(C)NC(=O)[C@@H](N)Cc1ccc(O)cc1)[C@@H](C)O)[C@@H](C)O)[C@@H](C)CC)[C@@H](C)CC)C(=O)N[C@@H](CCC(=O)O)C(=O)NCC(=O)NCC(N)=O
B4: Example 274 (peptide)
peptide: Y[Aib]EGTFTSDYSILLDKK([AEEA-AEEA-γGlu-C18 diacid])AQPAFIEYLIEGGPSSG-NH2
modifications: N-terminus assumed
SMILES: CC[C@H](C)[C@H](NC(=O)[C@H](CC(C)C)NC(=O)[C@H](Cc1ccc(O)cc1)NC(=O)[C@H](CCC(=O)O)NC(=O)[C@@H](NC(=O)[C@H](Cc1ccccc1)NC(=O)[C@H](C)NC(=O)[C@@H]1CCCN1C(=O)[C@H](CCC(N)=O)NC(=O)[C@H](C)NC(=O)[C@H](CCCCNC(=O)COCCOCCNC(=O)COCCOCCNC(=O)CC[C@H](NC(=O)CCCCCCCCCCCCCCCCC(=O)O)C(=O)O)NC(=O)[C@H](CCCCN)NC(=O)[C@H](CC(=O)O)NC(=O)[C@H](CC(C)C)NC(=O)[C@H](CC(C)C)NC(=O)[C@@H](NC(=O)[C@H](CO)NC(=O)[C@H](Cc1ccc(O)cc1)NC(=O)[C@H](CC(=O)O)NC(=O)[C@H](CO)NC(=O)[C@@H](NC(=O)[C@H](Cc1ccccc1)NC(=O)[C@@H](NC(=O)CNC(=O)[C@H](CCC(=O)O)NC(=O)C(C)(C)NC(=O)[C@@H](N)Cc1ccc(O)cc1)[C@@H](C)O)[C@@H](C)O)[C@@H](C)CC)[C@@H](C)CC)C(=O)N[C@@H](CCC(=O)O)C(=O)NCC(=O)NCC(=O)N1CCC[C@H]1C(=O)N[C@@H](CO)C(=O)N[C@@H](CO)C(=O)NCC(N)=O
B5: Example 272 (peptide)
peptide: Y[Aib]EGTFTSDYSILLDKK([AEEA-AEEA-γGlu-C18 diacid])AQ[Aib]AFIEYLIAGGPSSG-NH2
modifications: N-terminus assumed
SMILES: CC[C@H](C)[C@H](NC(=O)[C@H](CC(C)C)NC(=O)[C@H](Cc1ccc(O)cc1)NC(=O)[C@H](CCC(=O)O)NC(=O)[C@@H](NC(=O)[C@H](Cc1ccccc1)NC(=O)[C@H](C)NC(=O)C(C)(C)NC(=O)[C@H](CCC(N)=O)NC(=O)[C@H](C)NC(=O)[C@H](CCCCNC(=O)COCCOCCNC(=O)COCCOCCNC(=O)CC[C@H](NC(=O)CCCCCCCCCCCCCCCCC(=O)O)C(=O)O)NC(=O)[C@H](CCCCN)NC(=O)[C@H](CC(=O)O)NC(=O)[C@H](CC(C)C)NC(=O)[C@H](CC(C)C)NC(=O)[C@@H](NC(=O)[C@H](CO)NC(=O)[C@H](Cc1ccc(O)cc1)NC(=O)[C@H](CC(=O)O)NC(=O)[C@H](CO)NC(=O)[C@@H](NC(=O)[C@H](Cc1ccccc1)NC(=O)[C@@H](NC(=O)CNC(=O)[C@H](CCC(=O)O)NC(=O)C(C)(C)NC(=O)[C@@H](N)Cc1ccc(O)cc1)[C@@H](C)O)[C@@H](C)O)[C@@H](C)CC)[C@@H](C)CC)C(=O)N[C@@H](C)C(=O)NCC(=O)NCC(=O)N1CCC[C@H]1C(=O)N[C@@H](CO)C(=O)N[C@@H](CO)C(=O)NCC(N)=O

Each binder was assayed against human GLP-1 receptor (GLP-1R) (human, UniProt P43220 24-463) (assay: cell-based or functional assay).

Row | Binder | hGLP1R cAMP EC50 ratio | hGLP1R cAMP Rel EC50 [nM]
1 | B1 | 1.85 | 0.0352
2 | B2 | 0.00357 | 14
3 | B3 | 1.35 | 0.0352
4 | B4 | 0.00353 | 14.5
5 | B5 | 1.19 | 0.0435

Each binder was assayed against T1, human gastric inhibitory peptide … (assay: cell-based or functional assay).

Row | Binder | hGIPR cAMP EC50 ratio | hGIPR cAMP Rel EC50 [nM]
6 | B1 | 2.15 | 0.079
7 | B2 | < 0.00741 | > 30
8 | B3 | 0.614 | 0.334
9 | B4 | < 0.00741 | > 30
10 | B5 | 2.97 | 0.0464
